Experimental data from PMC5346638, “Azadiradione ameliorates polyglutamine expansion disease in Drosophila by potentiating DNA binding activity of heat shock factor 1” (Oncotarget, 2016).

Assays:
[1] = test system: his6-HSF1 (codon-optimized) (Homo sapiens); assay: EMSA; settings: Fluorescence: 2 uM HSF1, 0-10 uM HSE, room temperature, buffer not given; EMSA: 0.5 uM protein or 50 ug WCE, 1 ng 32P-HSE, buffer per cited reference, 4% PAGE
[2] = test system: his6-HSF1 (codon-optimized) (Homo sapiens); assay: tryptophan fluorescence quenching; settings: room temperature, Fluorescence: 2 uM HSF1, 0-10 uM HSE, buffer not given, EMSA: 0.5 uM protein or 50 ug WCE, 1 ng 32P-HSE, buffer per cited reference, 4% PAGE
[3] = target: T1, heat shock factor 1 (HSF1) (Homo sapiens, UniProt Q00613); assay: intrinsic tryptophan fluorescence titration, Scatchard plot; supported by EMSA, CD, light scattering; assay type: binding
T1 construct: purified full length HSF1, N-terminal his6 tag, expressed in E. coli
T1 sequence (Q00613 1-529): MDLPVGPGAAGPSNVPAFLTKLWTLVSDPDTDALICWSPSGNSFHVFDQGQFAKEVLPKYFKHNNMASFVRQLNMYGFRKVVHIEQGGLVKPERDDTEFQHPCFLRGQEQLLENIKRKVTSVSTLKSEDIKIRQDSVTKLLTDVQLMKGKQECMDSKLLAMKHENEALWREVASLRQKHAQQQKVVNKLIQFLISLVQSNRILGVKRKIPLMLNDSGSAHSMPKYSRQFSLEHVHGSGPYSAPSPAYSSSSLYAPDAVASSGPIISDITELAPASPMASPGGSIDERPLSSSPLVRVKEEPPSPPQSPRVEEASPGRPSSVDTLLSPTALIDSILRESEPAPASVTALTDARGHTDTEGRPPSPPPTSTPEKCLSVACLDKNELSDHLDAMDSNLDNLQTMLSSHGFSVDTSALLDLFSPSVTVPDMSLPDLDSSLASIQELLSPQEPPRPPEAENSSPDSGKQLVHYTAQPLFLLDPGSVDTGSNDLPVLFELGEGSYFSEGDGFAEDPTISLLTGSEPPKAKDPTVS

Compound | binding signal (fold affinity increase with AZD) [1] | Kd ([2]; 5 uM azadiradione) | Kd ([2]; no AZD) | Kd [3]
HSE (proximal HSE of hsp70A1A promoter) | > 2 | 350 nM | 800 nM | –
CC(=O)O[C@@H]1C[C@H]2C(C)(C)C(=O)C=C[C@]2(C)[C@H]2CC[C@]3(C)C(=CC(=O)[C@H]3c3ccoc3)[C@@]21C [AZD, azadiradione] | – | – | – | 1350 nM
